Drawing on paper PMC3913574, this text covers cell spreading assay: average surface area of MDCK+CADM1-GFP cells on CADM1-EC-Fc-coated glass against the same cells on control IgG for one molecule.

The assay deals with T1, recombinant CADM1-EC-Fc protein consisting of the extracellular fragment domain of CADM1 fused to the Fc region of mouse IgG (UniProt Q9BY67).
T1 sequence: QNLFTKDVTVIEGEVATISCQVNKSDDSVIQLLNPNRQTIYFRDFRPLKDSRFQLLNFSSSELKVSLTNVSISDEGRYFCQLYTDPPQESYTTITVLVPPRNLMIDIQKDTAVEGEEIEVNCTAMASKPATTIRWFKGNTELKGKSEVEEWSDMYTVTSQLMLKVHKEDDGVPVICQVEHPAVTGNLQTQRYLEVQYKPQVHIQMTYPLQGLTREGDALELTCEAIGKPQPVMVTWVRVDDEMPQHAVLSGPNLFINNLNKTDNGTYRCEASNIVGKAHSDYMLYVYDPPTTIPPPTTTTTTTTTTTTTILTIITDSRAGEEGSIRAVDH

B1: CADM1-GFP on MDCK cells (MDCK+CADM1-GFP) (natural protein)
chain: QNLFTKDVTVIEGEVATISCQVNKSDDSVIQLLNPNRQTIYFRDFRPLKDSRFQLLNFSSSELKVSLTNVSISDEGRYFCQLYTDPPQESYTTITVLVPPRNLMIDIQKDTAVEGEEIEVNCTAMASKPATTIRWFKGNTELKGKSEVEEWSDMYTVTSQLMLKVHKEDDGVPVICQVEHPAVTGNLQTQRYLEVQYKPQVHIQMTYPLQGLTREGDALELTCEAIGKPQPVMVTWVRVDDEMPQHAVLSGPNLFINNLNKTDNGTYRCEASNIVGKAHSDYMLYVYDPPTTIPPPTTTTTTTTTTTTTILTIITDSRAGEEGSIRAVDHAVIGGVVAVVVFAMLCLLIILGRYFARHKGTYFTHEAKGADDAADADTAIINAEGGQNNSEEKKEYFI
For B1, the cell spreading assay: average surface area of MDCK+CADM1-GFP cells on CADM1-EC-Fc-coated glass against the same cells on control IgG came to 1.8 fold.
